In patent publication US20210017275A1 (Alector, published 2021):

How the values were obtained:
[1] = biological target: human Siglec-5 expressed on human primary cells (human) (UniProt O15389); assay: flow cytometry, human primary neutrophils, secondary antibody only (no primary antibody), background control
[2] = biological target: human Siglec-5 expressed on human primary cells (human) (UniProt O15389); assay: flow cytometry, human primary dendritic cells, secondary antibody only (no primary antibody), background control
[3] = biological target: human Siglec-5 expressed on human primary cells (human) (UniProt O15389); assay: flow cytometry, human primary macrophages, secondary antibody only (no primary antibody), background control
[4] = biological target: human Siglec-5 expressed on human primary cells (human) (UniProt O15389); assay: flow cytometry, human primary monocytes, secondary antibody only (no primary antibody), background control
[5] = biological target: T1, Human Siglec 5, Fc chimera (R&D Systems) (human, UniProt O15389 17-434, limits assumed); assay: RBC adhesion to plate-bound Siglec-5-Fc, 1.0 ug/ml isotype control, percent of binding without antibody
T1 construct: Bought or recombinant Fc fusion; also called recombinant Siglec-5-Fc; not shown: Fc part
T1 sequence: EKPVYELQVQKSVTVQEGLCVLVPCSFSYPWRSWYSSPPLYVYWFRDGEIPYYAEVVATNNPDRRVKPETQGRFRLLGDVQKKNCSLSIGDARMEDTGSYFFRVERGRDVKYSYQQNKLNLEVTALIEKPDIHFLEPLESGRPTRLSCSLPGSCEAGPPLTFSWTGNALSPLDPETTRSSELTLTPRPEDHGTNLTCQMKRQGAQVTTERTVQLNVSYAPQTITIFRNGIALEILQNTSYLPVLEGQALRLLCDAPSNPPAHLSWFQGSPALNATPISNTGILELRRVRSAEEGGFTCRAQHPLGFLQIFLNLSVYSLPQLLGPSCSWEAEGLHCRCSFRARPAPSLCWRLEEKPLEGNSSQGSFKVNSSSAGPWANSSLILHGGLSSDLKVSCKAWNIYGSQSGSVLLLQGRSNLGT

[6] = biological target: human Siglec-5 expressed on human primary cells (human) (UniProt O15389); assay: flow cytometry, human primary macrophages, 10 ug/ml mAb
[7] = biological target: human Siglec-5 expressed on human primary cells (human) (UniProt O15389); assay: flow cytometry, human primary neutrophils, 10 ug/ml mAb
[8] = biological target: human Siglec-5 expressed on human primary cells (human) (UniProt O15389); assay: flow cytometry, human primary monocytes, 10 ug/ml mAb
[9] = biological target: T1, Human Siglec 5, Fc chimera (R&D Systems); assay: RBC adhesion to plate-bound Siglec-5-Fc, 0.3 ug/ml mAb, percent of binding without antibody
[10] = biological target: human Siglec-5 expressed on human primary cells (human) (UniProt O15389); assay: flow cytometry, human primary dendritic cells, 10 ug/ml mAb
[11] = biological target: human Siglec-5 expressed on human primary cells (human) (UniProt O15389); assay: flow cytometry, human primary neutrophils, isotype control
[12] = biological target: human Siglec-5 expressed on human primary cells (human) (UniProt O15389); assay: flow cytometry, human primary dendritic cells, isotype control
[13] = biological target: human Siglec-5 expressed on human primary cells (human) (UniProt O15389); assay: flow cytometry, human primary macrophages, isotype control
[14] = biological target: T1, Human Siglec 5, Fc chimera (R&D Systems); assay: RBC adhesion to plate-bound Siglec-5-Fc, 0.3 ug/ml isotype control, percent of binding without antibody
[15] = biological target: human Siglec-5 expressed on human primary cells (human) (UniProt O15389); assay: flow cytometry, human primary monocytes, isotype control
[16] = biological target: T2, Histidine-tagged human Siglec-5 (NovoProtein) (human, UniProt O15389 17-434, limits assumed); assay: SPR (BiaCore T200, 25 C), mAb captured on anti-mouse IgG, 15 nM His-tagged Siglec-5, single-concentration 1:1 fit
T2 construct: Bought protein; also called Siglec-5-his tagged protein; not shown: histidine tag
T2 sequence: T1 sequence

[17] = biological target: T3, human Siglec-5 expressed on human primary cells (human, UniProt O15389 17-551); assay: flow cytometry, human primary macrophages, 10 ug/ml mAb
T3 construct: Endogenous receptor on human primary monocytes, dendritic cells, macrophages and neutrophils; also called CD170
T3 sequence: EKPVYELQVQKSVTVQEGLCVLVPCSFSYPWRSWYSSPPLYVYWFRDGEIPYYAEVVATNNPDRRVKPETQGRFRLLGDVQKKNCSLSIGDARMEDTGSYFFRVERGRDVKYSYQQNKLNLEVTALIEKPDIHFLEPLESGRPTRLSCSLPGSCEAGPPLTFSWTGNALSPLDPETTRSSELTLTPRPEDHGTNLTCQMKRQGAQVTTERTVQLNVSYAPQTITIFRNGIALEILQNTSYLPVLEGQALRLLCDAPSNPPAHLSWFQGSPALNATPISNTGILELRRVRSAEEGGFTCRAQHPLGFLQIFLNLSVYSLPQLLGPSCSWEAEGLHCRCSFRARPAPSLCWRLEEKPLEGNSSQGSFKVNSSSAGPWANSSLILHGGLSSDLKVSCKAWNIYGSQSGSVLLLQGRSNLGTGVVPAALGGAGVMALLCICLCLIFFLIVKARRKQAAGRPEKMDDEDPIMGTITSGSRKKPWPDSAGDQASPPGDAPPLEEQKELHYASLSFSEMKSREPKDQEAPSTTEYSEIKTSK
Procedure: (§1) Initial characterization of Siglec-5 antibodies involved determining their ability to bind Siglec-5 expressed on human primary monocytes, human primary macrophages, human primary dendritic cells, and human primary neutrophils. Cells were harvested, plated at 10⁶1m1 in a 96 well plate, and incubated in 100 μl PBS containing 2% FBS, 2 mM EDTA and 10 μg/ml Mab and Fc blocking reagent for 1 hour in ice. […] Cells were washed twice in cold PBS and analyze by flow cytometry on a BD FACS Canto. Data analysis and calculation of MFI values was performed with FlowJo (TreeStar) software version 10.0.7.
(§2) Binding is compared to an isotype control.

[18] = biological target: T1, Human Siglec 5, Fc chimera (R&D Systems); assay: RBC adhesion to plate-bound Siglec-5-Fc, 1.0 ug/ml mAb, percent of binding without antibody
Procedure: Siglec-5 antibodies (0.3 μg/ml or 1.0 μg/ml) were bound for one hour at RT with gentle rocking. After removal of unbound antibody, red blood cells were added to each well at a concentration of 3.0 ×10⁶ cells per ml and incubated at RT for one hour. Unbound RBCs were then carefully washed off 3X with PBS, and water was added to each well for hypotonic lysis of bound RBCs. The plate was transferred to -80° C. for 10 minutes, followed by 37° C. for 15 minutes. Bound RBCs were detected by peroxidase activity, followed by 2N sulfuric acid to stop the reaction.

[19] = biological target: T3, human Siglec-5 expressed on human …; assay: flow cytometry, human primary monocytes, 10 ug/ml mAb
Procedure: as §1, §2

[20] = biological target: T3, human Siglec-5 expressed on human …; assay: flow cytometry, human primary neutrophils, 10 ug/ml mAb
Procedure: as §1, §2

[21] = biological target: T3, human Siglec-5 expressed on human …; assay: flow cytometry, human primary dendritic cells, 10 ug/ml mAb
Procedure: as §1, §2

Which % Positive [1] does the source give for PE-conjugated secondary antibody here?
Its % Positive is 3.42%.

And the MFI [1]?
The MFI was 62.1.

And the % Positive [2]?
The % Positive was 2.1%.

And the MFI [2]?
Its MFI is 87.

What about the % Positive [3] of the same molecule?
Its % Positive is 5.4%.

And the MFI [3]?
The MFI was 221.

What about the % Positive [4] of the same molecule?
The % Positive was 8.2%.

And the MFI [4]?
Its MFI is 104.

mouse IgG2a isotype control antibody was tested. Which Percent RBC Binding to Siglec-5 [5] did it give?
The Percent RBC Binding to Siglec-5 was 94.5%.

How did the % Positive [6] turn out when “commercially available anti-Siglec-5 antibody, clone 194128 (R&D Systems)” was run?
The % Positive was 96.9%.

What about the MFI [6] of the same molecule?
The MFI was 806.

And the % Positive [7]?
The % Positive was 99.2%.

And the MFI [7]?
Its MFI is 383.

And the % Positive [8]?
The % Positive was 98.8%.

What about the MFI [8] of the same molecule?
The MFI was 463.

What about the Percent RBC Binding to Siglec-5 [9] of the same molecule?
Its Percent RBC Binding to Siglec-5 is 41.5%.

And the % Positive [10]?
The % Positive was 94.8%.

What about the MFI [10] of the same molecule?
Its MFI is 641.

How did the Percent RBC Binding to Siglec-5 [5] turn out when mouse IgG2b isotype control antibody was run?
Its Percent RBC Binding to Siglec-5 is 94.4%.

With mouse IgG1 isotype control antibody as the molecule, how does the % Positive [11] read?
Its % Positive is 1.3%.

And the MFI [11]?
Its MFI is 53.7.

And the % Positive [12]?
Its % Positive is 6.7%.

And the MFI [12]?
The MFI was 98.

And the Percent RBC Binding to Siglec-5 [5]?
The Percent RBC Binding to Siglec-5 was 102%.

What about the % Positive [13] of the same molecule?
The % Positive was 21.9%.

And the MFI [13]?
Its MFI is 305.

What about the Percent RBC Binding to Siglec-5 [14] of the same molecule?
The Percent RBC Binding to Siglec-5 was 100%.

And the % Positive [15]?
The % Positive was 10.7%.

What about the MFI [15] of the same molecule?
The MFI was 126.

B1: anti-Siglec-5 monoclonal antibody 9A5 (antibody, IgG1, V domains shown)
VH: QVQLQQSGPELVEPGASVKVSCKASGYAFTSYNMYWVKQSHGKSLEWIGYIDPYNGGTYYDQKFKGRATLTVDKSSSTAHMHLNSLTSEDSAVYYCVFFYEYDGFPYWGQGTLVTVSA
VL: DIVLTQSPTLMSASPGEKVTMTCSASSSVSYMYWYQQKPRSSPKPLIYLTSNLASGVPARFSGSGSGTSYSLTISSMEAEDAATYYCQQWSSNPLTFGAGTKLELK
What does the source list for B1?
Kd [16]: 0.408 nM; % Positive [17]: 87.8%; MFI [17]: 471; Percent RBC Binding to Siglec-5 [9]: 47.5%; Percent RBC Binding to Siglec-5 [18]: 5.59%; % Positive [19]: 93.2%; MFI [19]: 368; % Positive [20]: 98.6%; MFI [20]: 332; % Positive [21]: 93.9%; MFI [21]: 591
